This passage reports luciferase expression by Jurkat-h4-1BB cells results from patent US20230059344A1.

For this test, the target named is h4-1-BB on a genetically engineered Jurkat T cell line (Promega 4-1BB Bioassay) (human) (UniProt Q07011). Nature of the test: cell-based or functional assay. The settings on record: scale: relative luciferase.
Chain of h4-1-BB on a genetically engineered Jurkat T cell line (Promega 4-1BB Bioassay) (human) (Q07011 24-255, change not shown): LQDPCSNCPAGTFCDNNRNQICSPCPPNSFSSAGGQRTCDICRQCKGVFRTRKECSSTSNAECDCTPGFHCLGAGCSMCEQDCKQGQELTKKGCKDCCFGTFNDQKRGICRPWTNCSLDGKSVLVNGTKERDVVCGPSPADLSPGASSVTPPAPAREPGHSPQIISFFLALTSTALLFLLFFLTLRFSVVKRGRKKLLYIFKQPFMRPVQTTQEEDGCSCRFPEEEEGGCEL

Substance “His-tagged h4-1BBL cross-linked with an Fc (from UniProt P41273 71-254) (ligand)” returned a luciferase expression by Jurkat-h4-1BB cells of 1.
